From patent US20250009801A1 (Innovent, published 2025) come the findings set out here.

For test [1], the target named is T1, human Claudin18.2-His (Acro, CL2-H5546) (human, UniProt P56856-2 1-261).
T1 construct: Bought reagent, amine-coupled to a CM5 chip; also called recombinant human CLDN18.2 protein; not shown: His tag
Briefly: SPR (Biacore T200), Claudin18.2-His coupled on CM5 chip, antibody in the mobile phase (avidity). (SPR reads the build-up and loss of mass on a sensor chip optically.)

The target of test [2] is HB37A6 PG Ab (P329G mutated HB37A6 antibody, human IgG1). Briefly: cell-based or functional assay.
Chain of HB37A6 PG Ab (P329G mutated HB37A6 antibody, human IgG1) (heavy, as listed by the source, chain 1 of 2): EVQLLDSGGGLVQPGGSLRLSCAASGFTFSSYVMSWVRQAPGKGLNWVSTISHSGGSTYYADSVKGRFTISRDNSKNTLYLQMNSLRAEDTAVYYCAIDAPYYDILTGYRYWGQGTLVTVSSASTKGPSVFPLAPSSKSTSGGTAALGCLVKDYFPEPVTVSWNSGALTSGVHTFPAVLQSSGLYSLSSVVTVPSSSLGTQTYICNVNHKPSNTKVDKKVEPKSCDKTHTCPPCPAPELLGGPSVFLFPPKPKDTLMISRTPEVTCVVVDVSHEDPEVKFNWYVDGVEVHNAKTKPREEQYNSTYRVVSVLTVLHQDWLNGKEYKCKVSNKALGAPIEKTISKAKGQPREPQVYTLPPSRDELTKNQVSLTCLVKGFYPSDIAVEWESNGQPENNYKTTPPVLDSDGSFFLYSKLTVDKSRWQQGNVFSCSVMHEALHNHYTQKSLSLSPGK
Chain of HB37A6 PG Ab (P329G mutated HB37A6 antibody, human IgG1) (light, as listed by the source, chain 2 of 2): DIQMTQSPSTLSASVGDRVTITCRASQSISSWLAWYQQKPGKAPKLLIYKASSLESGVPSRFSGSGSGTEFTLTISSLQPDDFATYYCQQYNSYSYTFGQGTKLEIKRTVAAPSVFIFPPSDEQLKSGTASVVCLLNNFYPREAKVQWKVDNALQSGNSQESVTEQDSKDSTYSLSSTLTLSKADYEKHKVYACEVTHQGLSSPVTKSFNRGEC

B1: Hz3G3 PG Ab (antibody, human IgG1, kappa, V domains shown)
VH: QVQLVQSGAEVKKPGASVKVSCKASGYSFTTYWMHWVRQAPGQGLEWMGLIDPSDSETRLNQKFKDRVTMTVDTSTSTVYMELSSLRSEDTAVYYCASNRWLLGWGQGTLVTVSS
VL: DIVMTQSPDSLAVSLGERATINCKSSQSLLNSGNQKNYLTWYQQKPGQPPKLLIYWASTRESGVPDRFSGSGSGTDFTLTISSLQAEDVAVYYCQNDYSYPLTFGQGTKLEIKR
notes: also called G3 PG antibody; G3 antibody
In the case of B1, in test [1], the Kd was 2.5 nM, the off-rate constant (koff) was determined as 0.00177 s⁻¹ and the on-rate (kon) is 709000 M⁻¹ s⁻¹.

B2: Hz69H9 PG Ab (P329G mutated Hz69H9 antibody, human IgG1) (antibody, V domains shown)
VH: QVQLVQSGAEVKKPGSSVKVSCKASGYSFSSYNIHWVRQAPGQGLEWMGYIAPFQGDSRYNQKFKGRVTITADKSTSTAYMELSSLRSEDTAVYYCARLNRGNSLDYWGQGTLVTVSS
VL: DIVMTQSPDSLAVSLGERATINCKSSQSLFNSGNQRNYLTWYQQKPGQPPKLLIYWASTRESGVPDRFSGSGSGTDFTLTISSLQAEDVAVYYCQNNYIYPLTFGGGTKVEIKR
notes: also called H9 PG antibody; P329G H9 antibody
For the molecule B2, in test [1], the Kd was below 0.00527 nM, the dissociation rate constant (koff) is below 1e-05 s⁻¹ and the on-rate (kon) is 1.9e+06 M⁻¹ s⁻¹.

B3: Hz69H9-SA PG Ab (antibody, human IgG1, kappa, V domains shown)
VH: QVQLVQSGAEVKKPGSSVKVSCKASGYSFSSYNISWVRQAPGQGLEWMGYIAPFQGDARYNQKFKGRVTITADKSTSTAYMELSSLRSEDTAVYYCARLNRGNSLDYWGQGTLVTVSS
VL: DIVMTQSPDSLAVSLGERATINCKSSQSLFNSGNQRNYLTWYQQKPGQPPKLLIYWASTRESGVPDRFSGSGSGTDFTLTISSLQAEDVAVYYCQNNYIYPLTFGGGTKVEIKR
notes: Mutant of the parent Hz69H9 with point mutations in VH or VL; also called H9-SA PG antibody
In test [1], B3 displayed a Kd of 0.325 nM, a koff of 0.000153 s⁻¹ and an association rate constant (kon) of 471000 M⁻¹ s⁻¹.

B4: Hz69H9-1.2 PG Ab (antibody, human IgG1, kappa, V domains shown)
VH: QVQLVQSGAEVKKPGSSVKVSCKASGYSFSSYNIHWVRQAPGQGLEWMGYIAPFQGDARYNQKFKGRVTITADKSTSTAYMELSSLRSEDTAVYYCARLNRGQSLDYWGQGTLVTVSS
VL: DIVMTQSPDSLAVSLGERATINCKSSQSLFNAGNQRNYLTWYQQKPGQPPKLLIYWASTRESGVPDRFSGSGSGTDFTLTISSLQAEDVAVYYCQNNYIYPLTFGGGTKVEIKR
notes: Mutant of the parent Hz69H9 with point mutations in VH or VL; also called H9-1.2 PG antibody
With B4, in test [1], the Kd came to 0.98 nM, the off-rate (koff) was 0.00185 s⁻¹ and the association rate constant (kon) came out at 1.89e+06 M⁻¹ s⁻¹.

B5: HuR968B CAR on CAR-T cells (receptor)
chain: EVQLVESGGGLVQPGGSLRLSCAASGFTFSRYWMNWVRQAPGKGLEWVGEITPDSSTINYAPSLKGRFTISRDNAKNSLYLQMNSLRAEDTAVYYCARPYDYGAWFASWGQGTLVTVSSGGGGSGGGGSGGGGSGGGGSQAVVTQEPSLTVSPGGTVTLTCRSSTGAVTTSNYANWVQEKPDHLFTGLIGGTNKRAPGTPARFSGSLLGGKAALTLSGAQPEDEAEYYCALWYSNHWVFGGGTKLTVLGGGGSIYIWAPLAGTCGVLLLSLVITLYCKRGRKKLLYIFKQPFMRPVQTTQEEDGCSCRFPEEEEGGCELRVKFSRSADAPAYQQGQNQLYNELNLGRREEYDVLDKRRGRDPEMGGKPRRKNPQEGLYNELQKDKMAEAYSEIGMKGERRRGKGHDGLYQGLSTATKDTYDALHMQALPPR
B5: in test [2], the “proliferation of CAR-T cells on plate-bound antibody (CellTiter-Glo), 2 days, against the WT antibody” value is around 2 fold and the “proliferation of CAR-T cells on plate-bound antibody (CellTiter-Glo), 3 days, against the WT antibody” value is around 3.3 fold.

The koff is the first-order rate constant of dissociation. One may read the kon as the second-order rate constant of association.
